± gives the uncertainty stated by the source.
B1: E3 ubiquitin-protein ligase TRIM36, residues 208 to 252; numbered along this chain, Q9NQ86 (parent)
chain: KILMCPEHETERINMYCELCRRPVCHLCKLGGNHANHRVTTMSSA

Variants of: B1
Assay: abundance fitness (aPCA) (normalised: wild type 0, dead -1); higher = more abundant; growth selection in yeast, the domain comes from the species named
Conditions: Homo sapiens

| Variant | abundance fitness |
| --- | --- |
| KILMCPEHETERINMYCELCRRPVCHMCKLGGNHANHRVTTMSSA [L27M] | -0.092 ± 0.089 |
| KILMCPEHETERINMYCELRRRPVCHLCKLGGNHANHRVTTMSSA [C20R] | -0.561 ± 0.05 |
| KILMCPEHETERINMYCELCRRPVCHLCKLGGNHANHRVTTMVSA [S43V] | -0.075 ± 0.052 |
| KILMCPEHETERINMWCELCRRPVCHLCKLGGNHANHRVTTMSSA [Y16W] | -0.04 ± 0.1 |
| KILMCPEHETERINMYCELCRRPECHLCKLGGNHANHRVTTMSSA [V24E] | -0.293 ± 0.062 |
| KILMCPEHETERIYMYCELCRRPVCHLCKLGGNHANHRVTTMSSA [N14Y] | -0.065 ± 0.13 |
| KILMCPEHKTERINMYCELCRRPVCHLCKLGGNHANHRVTTMSSA [E9K] | 0.079 ± 0.067 |
| KILMCPEHESERINMYCELCRRPVCHLCKLGGNHANHRVTTMSSA [T10S] | -0.078 ± 0.057 |
| KILMCPEHETERINMYCELCRRPVCHLCKLGGNHANHRVTTGSSA [M42G] | 0.123 ± 0.045 |
| KILMCPEHETERINMYCELCRRPVCHLCILGGNHANHRVTTMSSA [K29I] | -0.13 ± 0.064 |
| KILMCPEHETERINMYCELCRRPVCHLFKLGGNHANHRVTTMSSA [C28F] | -1.14 ± 0.23 |
| KILMCPEHETERINMYCELCRRPVCHLCKLGGNHANHMVTTMSSA [R38M] | 0.008 ± 0.055 |
| KILMCPEHTTERINMYCELCRRPVCHLCKLGGNHANHRVTTMSSA [E9T] | 0.053 ± 0.053 |
| KILMCPEHETERINMYCELCRRPVCHLCKLGGNHANHRVTTLSSA [M42L] | -0.031 ± 0.051 |
| KILMCPEHETERINMYVELCRRPVCHLCKLGGNHANHRVTTMSSA [C17V] | -0.813 ± 0.087 |
| KILMCPEHETERINMYCELCRRPVCHLCKLGGNHANHRVTTMSSV [A45V] | -0.091 ± 0.076 |
| KILMCPEHETERINMYCELCRRPVCRLCKLGGNHANHRVTTMSSA [H26R] | -0.05 ± 0.055 |
| KILMCPEHETERINMYCELCRRPVCHLCKCGGNHANHRVTTMSSA [L30C] | -0.023 ± 0.063 |
| KILMCPEHETERINMYCELCRRPVCHLCYLGGNHANHRVTTMSSA [K29Y] | -0.012 ± 0.063 |

| Variant | abundance fitness |
| --- | --- |
| KILMCPEHETERINMYCELCRRPVCHLCKLGGNHANHRVTTSSSA [M42S] | 0.06 ± 0.058 |
| KILMCPEHETERINMYCELCRRPVCHLCNLGGNHANHRVTTMSSA [K29N] | 0.072 ± 0.084 |
| KILMCPEHETERINMYCELCFRPVCHLCKLGGNHANHRVTTMSSA [R21F] | -0.425 ± 0.38 |
| KILMCPEHETERINMYCELCRRPVCHLCKLGGNHANHRVTPMSSA [T41P] | -0.059 ± 0.062 |
| KILMCPHHETERINMYCELCRRPVCHLCKLGGNHANHRVTTMSSA [E7H] | 0.01 ± 0.13 |
| KILMCPEHETERINMYCELCRRPVCHLCKLGGNHWNHRVTTMSSA [A35W] | -0.309 ± 0.053 |
| KILMCPEHETERINMYCVLCRRPVCHLCKLGGNHANHRVTTMSSA [E18V] | -0.172 ± 0.069 |
| KILMCPEHETERINMYCELCRRPVCHLCKLGGNHAEHRVTTMSSA [N36E] | 0.039 ± 0.064 |
| KILMCPEHETERINMYCELCRRPVCHLCKLGGNYANHRVTTMSSA [H34Y] | -0.562 ± 0.072 |
| KILMCPEHVTERINMYCELCRRPVCHLCKLGGNHANHRVTTMSSA [E9V] | -0.051 ± 0.052 |
| KILMCPEHETERINMYCELCRRPVCHLCKLGGNNANHRVTTMSSA [H34N] | -0.46 ± 0.084 |
| KILMCPEHETERINMYCELCRKPVCHLCKLGGNHANHRVTTMSSA [R22K] | 0.068 ± 0.067 |
| KILMCPEHETERINMYCELCRRPVCHLCKLGGNHAQHRVTTMSSA [N36Q] | 0.021 ± 0.063 |
| KILMCPELETERINMYCELCRRPVCHLCKLGGNHANHRVTTMSSA [H8L] | -1.24 ± 0.08 |
| KILMCPEHETERINMYCELCRRPVCHLCKLQGNHANHRVTTMSSA [G31Q] | -0.019 ± 0.056 |
| KILMCPEHETERINMYCELCPRPVCHLCKLGGNHANHRVTTMSSA [R21P] | -0.387 ± 0.088 |
| KILMHPEHETERINMYCELCRRPVCHLCKLGGNHANHRVTTMSSA [C5H] | -0.873 ± 0.097 |
| KILMCPEHETERINMYCELCRRPVCHLCLLGGNHANHRVTTMSSA [K29L] | 0.039 ± 0.055 |
| KILMCPEHETERINMMCELCRRPVCHLCKLGGNHANHRVTTMSSA [Y16M] | 0.11 ± 0.25 |

| Variant | abundance fitness |
| --- | --- |
| KILMCPEHETERINMYCELCRRPVCHLCKLGGNHANQRVTTMSSA [H37Q] | -0.119 ± 0.065 |
| KILMCPEHETERINMYCELCRRPVCHLCKLGGNHANHSVTTMSSA [R38S] | 0.018 ± 0.073 |
| KILMCPEHETERINMYCELCRRPVCHLCKLGGPHANHRVTTMSSA [N33P] | 0.092 ± 0.057 |
| KILMCPLHETERINMYCELCRRPVCHLCKLGGNHANHRVTTMSSA [E7L] | -0.127 ± 0.055 |
| KILMCPEHETERINMYCELCRRPDCHLCKLGGNHANHRVTTMSSA [V24D] | -0.453 ± 0.094 |
| KILMCPEHETERINMYCELCRRPVCHLCKLGGNHAHHRVTTMSSA [N36H] | -0.05 ± 0.058 |
| KILMCPEHETERINMYCELCRRPVCHNCKLGGNHANHRVTTMSSA [L27N] | 0.005 ± 0.12 |
| KILMCIEHETERINMYCELCRRPVCHLCKLGGNHANHRVTTMSSA [P6I] | -0.219 ± 0.084 |
| KILMCPEHETERINMYCELCRRPCCHLCKLGGNHANHRVTTMSSA [V24C] | -0.107 ± 0.11 |
| KILMCPEHETERINMYCELCRRPVCHLCKLGGNHANHRVTTMSCA [S44C] | -0.208 ± 0.06 |
| KILMCPEHETERINMYCELCRRPVCHLCKLGGNHANHRVTTMSSQ [A45Q] | -0.21 ± 0.2 |
| KILMCPEHETERINMYCELCRRPVCHLCKLGGNHATHRVTTMSSA [N36T] | -0.024 ± 0.054 |
| KILMCPEHETERINMYCELCRRPVCHLLKLGGNHANHRVTTMSSA [C28L] | -0.826 ± 0.06 |
| KILMCPEHETERINMYCELCRRPVGHLCKLGGNHANHRVTTMSSA [C25G] | -0.556 ± 0.053 |
| KILMCPEHYTERINMYCELCRRPVCHLCKLGGNHANHRVTTMSSA [E9Y] | -0.076 ± 0.12 |
| KILMCPEHETERINMYCELCRRPVCHLCKLGGNHACHRVTTMSSA [N36C] | -0.017 ± 0.067 |
| KILMCPEHETERINMYCEHCRRPVCHLCKLGGNHANHRVTTMSSA [L19H] | 0.004 ± 0.13 |
| KILMCPEHETERINMYCELCRRPVCHLCKLHGNHANHRVTTMSSA [G31H] | -0.08 ± 0.056 |
| KILMCPEHETERINMYCELCRRPVEHLCKLGGNHANHRVTTMSSA [C25E] | -0.48 ± 0.072 |

From the Human Domainome abundance scans (Beltran et al. 2025)
